Substrate in data set [1]: Nc1ncnc2c1ncn2[C@@H]1O[C@H](COP(=O)(O)O)[C@@H](O)[C@H]1O
The data set is described as follows: purified protein, by the assay type. As to conditions: other: substrate AMP. The format is biochemical, human.

Substrate in data set [2]: Nc1ncnc2c1ncn2[C@@H]1O[C@H](COP(=O)(O)O)[C@@H](O)[C@H]1O
The data set is described as follows: radiometric CD73 assay, membrane preparations of MDA-MB-231 cells. In kind it is biochemical, human. As to conditions: other: substrate AMP; membrane preparation; 37.0 °C.

Experimental findings from article PMC6526958 are described below.

What is called Km is the substrate concentration at which the rate is half of its maximum.

B1: recombinant soluble human CD73 (Homo sapiens) (protein)
chain: ELTILHTNDVHSRLEQTSEDSSKCVNASRCMGGVARLFTKVQQIRRAEPNVLLLDAGDQYQGTIWFTVYKGAEVAHFMNALRYDAMALGNHEFDNGVEGLIEPLLKEAKFPILSANIKAKGPLASQISGLYLPYKVLPVGDEVVGIVGYTSKETPFLSNPGTNLVFEDEITALQPEVDKLKTLNVNKIIALGHSGFEMDKLIAQKVRGVDVVVGGHSNTFLYTGNPPSKEVPAGKYPFIVTSDDGRKVPVVQAYAFGKYLGYLKIEFDERGNVISSHGNPILLNSSIPEDPSIKADINKWRIKLDNYSTQELGKTIVYLDGSSQSCRFRECNMGNLICDAMINNNLRHTDEMFWNHVSMCILNGGGIRSPIDERNNGTITWENLAAVLPFGGTFDLVQLKGSTLKKAFEHSVHRYGQSTGEFLQVGGIHVVYDLSRKPGDRVVKLDVLCTKCRVPSYDPLKMDEVYKVILPNFLANGGDGFQMIKDELLRHDSGDQDINVVSTYISKMKVIYPAVEGRIKFS
On to B1, for which, in data set [1], the Km turned out to be 17.0 ± 2.1 µM.

B2: membrane-bound CD73 (MDA-MB-231 membrane preparation) (Homo sapiens) (protein)
chain: WELTILHTNDVHSRLEQTSEDSSKCVNASRCMGGVARLFTKVQQIRRAEPNVLLLDAGDQYQGTIWFTVYKGAEVAHFMNALRYDAMALGNHEFDNGVEGLIEPLLKEAKFPILSANIKAKGPLASQISGLYLPYKVLPVGDEVVGIVGYTSKETPFLSNPGTNLVFEDEITALQPEVDKLKTLNVNKIIALGHSGFEMDKLIAQKVRGVDVVVGGHSNTFLYTGNPPSKEVPAGKYPFIVTSDDGRKVPVVQAYAFGKYLGYLKIEFDERGNVISSHGNPILLNSSIPEDPSIKADINKWRIKLDNYSTQELGKTIVYLDGSSQSCRFRECNMGNLICDAMINNNLRHTDEMFWNHVSMCILNGGGIRSPIDERNNGTITWENLAAVLPFGGTFDLVQLKGSTLKKAFEHSVHRYGQSTGEFLQVGGIHVVYDLSRKPGDRVVKLDVLCTKCRVPSYDPLKMDEVYKVILPNFLANGGDGFQMIKDELLRHDSGDQDINVVSTYISKMKVIYPAVEGRIKFSTGSHCHGSFSLIFLSLWAVIFVLYQ
With B2, the Michaelis-Menten constant (Km) in data set [2] is on record as 14.8 ± 2.1 µM.
